Results: paper PMC11144241, “Nutrient levels control root growth responses to high ambient temperature in plants”

Target: T1, HY5 (Arabidopsis thaliana, UniProt O24646 1-168)
T1 sequence: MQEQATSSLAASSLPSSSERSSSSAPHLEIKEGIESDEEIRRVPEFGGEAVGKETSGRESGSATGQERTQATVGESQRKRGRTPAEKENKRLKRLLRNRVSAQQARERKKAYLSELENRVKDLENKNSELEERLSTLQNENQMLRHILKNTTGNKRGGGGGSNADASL
Assay: EMSA; EMSA according to manufacturer's protocol (Thermofisher); buffer, salt, pH and temperature not stated
Conditions: protein: recombinant; tags: GST (pDEST15, N-terminal); label: biotin 3' end; blunt

B1: pNRT1.1-EMSA (G-box probe, NRT1.1 promoter) (dsDNA)
DNA 1: GAGTCACACATGTGTCACTT
DNA 2: AAGTGACACATGTGTGACTC
B1: binds.
